The values that follow come from article PMC9338922, “DltC acts as an interaction hub for AcpS, DltA and DltB in the teichoic acid D-alanylation pathway of Lactiplantibacillus plantarum” (Scientific Reports, 2022).

Data set [1] addresses L. plantarum DltC1, full-length wild type, C-terminal His6 tag (Lactiplantibacillus plantarum) (UniProt Q88VM8). In words: crystal structure; AcpS/DltC1 complex at 4.8 mg/ml, sitting-drop vapor diffusion at 293 K, 20% PEG3350 and 0.2 M sodium malonate; 1.88 Å.
Data set [2] deals with the molecule itself. The data set is described as above.
Data set [3] addresses T1, DltA-∆P-loop mutant, C-terminal His6 tag (Lactiplantibacillus plantarum, UniProt Q88VM6 1-508, missing the loop region comprised between T152 and K160).
T1 sequence: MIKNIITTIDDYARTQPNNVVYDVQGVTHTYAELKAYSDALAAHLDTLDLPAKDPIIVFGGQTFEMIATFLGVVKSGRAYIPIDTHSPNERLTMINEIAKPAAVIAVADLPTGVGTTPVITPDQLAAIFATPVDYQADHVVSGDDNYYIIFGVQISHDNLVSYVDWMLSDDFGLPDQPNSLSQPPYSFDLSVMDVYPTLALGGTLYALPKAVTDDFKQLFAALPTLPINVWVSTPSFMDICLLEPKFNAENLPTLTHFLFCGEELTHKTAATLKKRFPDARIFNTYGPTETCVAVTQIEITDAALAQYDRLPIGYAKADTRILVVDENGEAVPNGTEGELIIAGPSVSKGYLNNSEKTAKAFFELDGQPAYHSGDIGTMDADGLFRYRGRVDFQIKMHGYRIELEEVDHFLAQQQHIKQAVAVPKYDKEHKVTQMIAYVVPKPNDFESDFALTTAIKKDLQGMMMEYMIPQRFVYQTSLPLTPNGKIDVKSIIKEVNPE
In words: MST.

Data set [4] concerns the target T2, L. plantarum DltA, full-length wild type, C-terminal His6 tag (Lactiplantibacillus plantarum, UniProt Q88VM6 1-508).
T2 construct: DltA (D-alanine-D-alanyl carrier protein ligase) of Lactiplantibacillus plantarum, full-length wild type, 508 residues, cloned in pT7-7; the C-terminal domain is not visible; also called LpDltA; D-alanine-D-alanyl carrier protein ligase; source: E. coli BL21 (DE3), purified (Ni-NTA, SEC)
T2 sequence (looked up): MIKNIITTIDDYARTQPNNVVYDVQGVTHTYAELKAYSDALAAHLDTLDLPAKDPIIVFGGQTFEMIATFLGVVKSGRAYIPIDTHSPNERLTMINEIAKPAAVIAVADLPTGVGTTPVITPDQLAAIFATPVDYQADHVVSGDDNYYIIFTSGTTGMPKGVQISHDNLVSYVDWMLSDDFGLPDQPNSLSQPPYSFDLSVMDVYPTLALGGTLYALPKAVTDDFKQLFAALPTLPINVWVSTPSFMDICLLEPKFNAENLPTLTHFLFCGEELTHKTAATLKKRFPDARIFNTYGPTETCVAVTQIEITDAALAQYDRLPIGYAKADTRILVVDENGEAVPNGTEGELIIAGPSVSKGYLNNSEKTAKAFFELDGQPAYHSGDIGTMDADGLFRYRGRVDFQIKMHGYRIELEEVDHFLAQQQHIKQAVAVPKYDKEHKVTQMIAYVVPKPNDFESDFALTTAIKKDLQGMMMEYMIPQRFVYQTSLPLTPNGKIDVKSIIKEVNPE
In words: MST; one protein labelled with NHS red fluorescent dye (RED-NHS Monolith NT kit); Hepes 25 mM pH 7.5, NaCl 300 mM, Tween20 0.05%; 22 °C; triplicate. Particulars: both partners purified.

The target of data set [5] is T3, DltA-∆P-loop mutant, C-terminal His6 tag (Lactiplantibacillus plantarum, UniProt Q88VM6 1-508, missing the loop region comprised between T152 and K160).
T3 construct: DltA of Lactiplantibacillus plantarum, full length but missing the P-loop region comprised between Thr152 and Lys160, cloned in pT7-7; source: E. coli BL21 (DE3), purified (Ni-NTA, SEC)
T3 sequence (looked up): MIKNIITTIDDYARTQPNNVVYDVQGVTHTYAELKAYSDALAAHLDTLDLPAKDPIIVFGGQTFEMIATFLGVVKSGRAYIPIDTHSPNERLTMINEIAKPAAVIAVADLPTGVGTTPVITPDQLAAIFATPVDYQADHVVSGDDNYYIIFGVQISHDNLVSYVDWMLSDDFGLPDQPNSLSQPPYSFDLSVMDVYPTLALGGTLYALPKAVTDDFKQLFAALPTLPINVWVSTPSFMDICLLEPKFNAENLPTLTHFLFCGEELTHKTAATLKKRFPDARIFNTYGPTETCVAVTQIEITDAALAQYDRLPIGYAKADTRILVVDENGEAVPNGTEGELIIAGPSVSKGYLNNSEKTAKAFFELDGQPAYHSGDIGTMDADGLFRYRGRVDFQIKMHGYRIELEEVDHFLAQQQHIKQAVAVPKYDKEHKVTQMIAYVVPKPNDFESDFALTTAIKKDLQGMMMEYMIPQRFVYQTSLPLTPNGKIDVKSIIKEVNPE
The data set is described as above. As to conditions: both partners purified.

Data set [6] deals with T4, L. plantarum AcpS, full-length wild type, C-terminal His6 tag (Lactiplantibacillus plantarum, UniProt Q88Z44 1-120).
T4 construct: AcpS (acyl-carrier protein synthase) of Lactiplantibacillus plantarum, full-length wild type, cloned in pT7-7 (NdeI/PstI); AcpS is a trimer in the crystal structure of the complex (PDB 7R49); also called LpAcpS; acyl-carrier protein synthase; source: E. coli BL21 (DE3), purified (Ni-NTA, Superdex 200 SEC)
T4 sequence (looked up): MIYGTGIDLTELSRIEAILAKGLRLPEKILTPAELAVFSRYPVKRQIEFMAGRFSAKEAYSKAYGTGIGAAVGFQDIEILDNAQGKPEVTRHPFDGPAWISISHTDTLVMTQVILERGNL
Nature of the data set: SEC; purified AcpS mixed with apo- or holo-DltC1, mixture subjected to size exclusion chromatography. As to conditions: both partners purified. (In general: In gel filtration, larger molecules generally elute earlier.)

B1: L. plantarum AcpS, full-length wild type, untagged (enzyme, Lactiplantibacillus plantarum, UniProt Q88Z44 1-120, looked up)
chain: MIYGTGIDLTELSRIEAILAKGLRLPEKILTPAELAVFSRYPVKRQIEFMAGRFSAKEAYSKAYGTGIGAAVGFQDIEILDNAQGKPEVTRHPFDGPAWISISHTDTLVMTQVILERGNL
notes: AcpS of Lactiplantibacillus plantarum, full-length wild type, pT7-7 with a stop codon before the TEV cleavage site and the His6 tag; also called untagged LpAcpS^WT; untagged AcpS; source: E. coli BL21 (DE3); lysate mixed with Ni-NTA-purified DltC1, complex purified (Ni-NTA, Superdex 200 SEC)
One may read the stoichiometry N as a count of units in the complex or per binding partner. B1 registered a stoichiometry N (AcpS:DltC1 (3:3)) in data set [1] of 1. Moreover, the “stoichiometry N” value in data set [2] stood at 3.

B2: holo-DltC1 (DltC1 fully modified by phosphopantetheine), C-terminal His6 tag (natural protein, Lactiplantibacillus plantarum, UniProt Q88VM8 1-80, looked up)
chain: MTMDDTKATVLSILADLTGEDVSSNMDVNLFDEGILDSMGSVQLLLELQNQLGIEVPVSEFQRSEWDTPAKIVAKVENLQ
modifications: phosphopantetheine (Ppant) covalently attached to Ser38, confirmed by mass spectrometry
notes: DltC1 (nc8_1734) of Lactiplantibacillus plantarum, wild type, co-expressed with wild type AcpS from pRSF-Duet1; also called Ppant-DltC1; Ppant-modified DltC; source: E. coli BL21 (DE3), co-expressed with LpAcpS from pRSF-Duet1, purified (Ni-NTA, SEC); 15N-labelled in M9 minimal media for NMR
The Kd is the equilibrium constant for the complex coming apart. Low values mean a tighter complex, high ones a looser complex. With B2, the values for the Kd in data set [3] and in data set [4] were 0.18 µM and 5.74 µM, respectively. The binding result in data set [5] is “binds”.

B3: apo-DltC1-S38A, C-terminal His6 tag (natural protein, Lactiplantibacillus plantarum, UniProt Q88VM8 1-80, looked up)
chain: MTMDDTKATVLSILADLTGEDVSSNMDVNLFDEGILDAMGSVQLLLELQNQLGIEVPVSEFQRSEWDTPAKIVAKVENLQ
notes: DltC1 (nc8_1734) of Lactiplantibacillus plantarum, full length, catalytic Ser38 mutated to Ala, cloned in pET-28a(+); source: E. coli BL21 (DE3)-RIPL, purified (Ni-NTA, SEC); 15N- or 13C,15N-labelled in M9 minimal media for NMR
In the case of B3, the binding result in data set [6] and in data set [5] was “binds” each time. Besides, the Kd in data set [4] worked out at 8.89 µM.
